Source: US20180028658A1
pKd: −log10 of the molar value.

Legend:
[1] = target: HIV-1 Yu2 gp160 (Env) expressed on the 293T cell surface (HIV-1 Yu2) (UniProt P35961); assay: flow cytometry, 293T cells transfected with Yu2 gp160, primary antibody 10 µg/ml
[2] = target: HIV-1 gp41 (strain not stated) (HIV-1); assay: SPR (BIAcore), Env protein immobilized on CM5 chip, antibody as analyte
[3] = target: Recombinant HIV-1 gp41MN (HIV-1 MN) (UniProt P05877); assay: ELISA on coated gp41 (HIV-1 MN per the example), OD at 405 nm
[4] = target: SF162 gp140 trimer (HIV-1 SF162) (UniProt P19550); assay: ELISA on coated SF162 gp140 trimer, OD at 405 nm, 1x PBS as blank
Chain of SF162 gp140 trimer (HIV-1 SF162) (P19550 32-675 limits assumed): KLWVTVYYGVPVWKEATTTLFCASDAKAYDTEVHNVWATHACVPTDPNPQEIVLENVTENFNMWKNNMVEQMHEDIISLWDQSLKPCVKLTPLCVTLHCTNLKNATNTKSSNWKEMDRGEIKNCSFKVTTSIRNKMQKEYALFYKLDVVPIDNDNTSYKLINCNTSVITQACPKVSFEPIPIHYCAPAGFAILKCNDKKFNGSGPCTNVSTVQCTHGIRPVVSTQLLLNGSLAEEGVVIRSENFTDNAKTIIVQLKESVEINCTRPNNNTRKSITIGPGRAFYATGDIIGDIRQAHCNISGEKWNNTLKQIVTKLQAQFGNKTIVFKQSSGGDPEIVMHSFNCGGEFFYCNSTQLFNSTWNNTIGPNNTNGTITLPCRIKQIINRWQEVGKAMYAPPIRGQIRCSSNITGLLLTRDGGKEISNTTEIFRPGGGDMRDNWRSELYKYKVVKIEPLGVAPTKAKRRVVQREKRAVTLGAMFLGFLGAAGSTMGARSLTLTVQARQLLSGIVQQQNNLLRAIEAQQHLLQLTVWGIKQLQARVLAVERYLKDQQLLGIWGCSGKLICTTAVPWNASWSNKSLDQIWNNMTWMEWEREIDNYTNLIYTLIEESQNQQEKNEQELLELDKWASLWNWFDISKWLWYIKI

[5] = target: full-length gp120 monomer (HIV-1 (Yu2 by the materials, not named in the results)) (UniProt P35961); assay: ELISA on coated full-length gp120 monomer, OD at 405 nm, 1x PBS as blank
[6] = target: BG505 SOSIP.664 gp140 trimer (HIV-1 BG505); assay: ELISA on coated BG505 SOSIP.664 gp140 trimer, OD at 405 nm, 1x PBS as blank
[7] = target: full-length gp120 monomer (HIV-1 (Yu2 by the materials, not named in the results)) (UniProt P35961); assay: SPR (BIAcore), Env protein immobilized on CM5 chip, antibody as analyte
[8] = target: BG505 SOSIP.664 gp140 trimer (HIV-1 BG505); assay: method not given
[9] = target: HIV-1 gp41 (strain not stated) (HIV-1); assay: method not given
[10] = target: full-length gp120 monomer (HIV-1 (Yu2 by the materials, not named in the results)) (UniProt P35961); assay: method not given

Row | Substance | Percentage of recognition of HIV-1 Env [1] | also measured
1 | HIV 1 V3 Monoclonal Antibody (2191) | 2.9% | –
2 | HIV 1 V3 Monoclonal Antibody (2219) | 3.1% | –
3 | HIV 1 V3 Monoclonal Antibody (2442) | 6.6% | –
4 | HIV 1 V3 Monoclonal Antibody (3074) | 3.4% | –
5 | HIV 1 V3 Monoclonal Antibody (3869) | 2.6% | –
6 | HIV 1 gp41 Monoclonal Antibody (167-7, 67-D IV) | 11.8% | –
7 | HIV-1 MAb PG9 (antibody) | 6% | –
8 | HIV-1 MAb PG16 (antibody) | 1.5% | –
9 | HIV-1 V2V3 Monoclonal Antibody (2909) | 5.6% | –
10 | HIV-1 anti-gp41 mAb (7H6) (antibody) | 19.8% | –
11 | HIV-1 anti-gp41 mAb (10E8) (antibody) | 11.7% | pKd [2]: 7.81; koff [2]: 0.000901 s⁻¹
12 | HIV-1 gp41 MAb (IgG1 Z13e1) (antibody) | 5.2% | –
13 | HIV-1 gp41 Monoclonal (98-6) (antibody) | 3.5% | –
14 | HIV-1 gp41 Monoclonal (126-7) (antibody) | 3.2% | –
15 | HIV-1 gp41 Monoclonal Antibody (2F5) | 9.9% | EC50 (read off the curve) [3]: 0.03 µg/mL
16 | HIV-1 gp41 Monoclonal Antibody (4E10) | 13.4% | EC50 (read off the curve) [3]: 0.03 µg/mL; pKd [2]: 7.97; koff [2]: 2.14e-05 s⁻¹; kon [2]: 1980 M⁻¹ s⁻¹
17 | HIV-1 gp41 Monoclonal Antibody (5F3) | 6.4% | –

Row | Substance | Percentage of recognition of HIV-1 Env [1] | also measured
18 | HIV-1 gp41 Monoclonal Antibody (50-69) | 4.5% | –
19 | HIV-1 gp41 Monoclonal Antibody (F240) | 3.5% | –
20 | HIV-1 gp120 MAb (39F) (antibody) | 2.6% | –
21 | HIV-1 gp120 MAb (A32) (antibody) | 79.2% | –
22 | HIV-1 gp120 MAb (HJ16) (antibody) | 17.6% | –
23 | HIV-1 gp120 MAb (VRC01) (antibody) | 6% | EC50 (read off the curve) [4]: 0.05 µg/mL; EC50 (read off the curve) [5]: 0.3 µg/mL; EC50 (read off the curve) [6]: 0.03 µg/mL
24 | HIV-1 gp120 MAb (VRC03) (antibody) | 6.4% | –
25 | HIV-1 gp120 Monoclonal (2G12) (antibody) | 22.8% | –
26 | HIV-1 gp120 Monoclonal Antibody (17b) | 1.5% | pKd [7]: 9.01; koff [7]: 2.59e-06 s⁻¹
27 | HIV-1 gp120 Monoclonal Antibody (48d) | 3.1% | –
28 | HIV-1 gp120 Monoclonal Antibody (F105) | 4.5% | –
29 | HIV-1 gp120 Monoclonal Antibody (F425 B4a1) | 2.5% | –
30 | HIV-1 gp120 Monoclonal Antibody (F425 B4e8) | 6.4% | –
31 | HIV-1 gp120 Monoclonal Antibody (IgG1 b12) | 9.8% | –
32 | Monoclonal Antibodies to HIV-1 V3 (268) (antibody) | 2.1% | –
33 | NIH45-46 (antibody) | – | pKd [8]: 10.00; pKd [9]: 9.00; pKd [10]: 10.00; EC50 (read off the curve) [4]: 0.2 µg/mL; EC50 (read off the curve) [6]: 0.02 µg/mL
